Key:
human VEGFR2-Fc = molecular target: T1, human VEGFR2-Fc; test: SPR, drawn table under the head 'Affinity for DIG-siRNA' with a Capture column
T1 chain: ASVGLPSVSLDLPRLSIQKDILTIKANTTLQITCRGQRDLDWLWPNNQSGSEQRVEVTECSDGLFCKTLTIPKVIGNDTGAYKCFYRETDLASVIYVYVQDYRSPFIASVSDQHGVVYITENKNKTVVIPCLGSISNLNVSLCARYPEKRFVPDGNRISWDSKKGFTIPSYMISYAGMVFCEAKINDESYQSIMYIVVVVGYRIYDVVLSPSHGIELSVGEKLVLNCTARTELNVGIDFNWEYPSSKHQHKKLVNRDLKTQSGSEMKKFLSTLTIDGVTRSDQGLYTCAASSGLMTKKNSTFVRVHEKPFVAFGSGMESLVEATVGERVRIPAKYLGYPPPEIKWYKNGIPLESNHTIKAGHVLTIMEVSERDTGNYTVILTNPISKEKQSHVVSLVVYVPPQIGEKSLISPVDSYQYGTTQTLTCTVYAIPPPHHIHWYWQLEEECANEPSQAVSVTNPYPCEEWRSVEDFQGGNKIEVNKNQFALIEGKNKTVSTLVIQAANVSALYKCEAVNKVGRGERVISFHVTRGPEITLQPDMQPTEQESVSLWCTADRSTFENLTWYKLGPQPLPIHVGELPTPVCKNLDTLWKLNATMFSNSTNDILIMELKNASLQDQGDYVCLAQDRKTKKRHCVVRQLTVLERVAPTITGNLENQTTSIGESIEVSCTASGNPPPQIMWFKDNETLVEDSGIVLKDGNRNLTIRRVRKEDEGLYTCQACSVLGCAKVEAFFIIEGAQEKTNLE

mouse VEGFR2-Fc = molecular target: T2, mouse VEGFR2-Fc; test: as above
T2 chain: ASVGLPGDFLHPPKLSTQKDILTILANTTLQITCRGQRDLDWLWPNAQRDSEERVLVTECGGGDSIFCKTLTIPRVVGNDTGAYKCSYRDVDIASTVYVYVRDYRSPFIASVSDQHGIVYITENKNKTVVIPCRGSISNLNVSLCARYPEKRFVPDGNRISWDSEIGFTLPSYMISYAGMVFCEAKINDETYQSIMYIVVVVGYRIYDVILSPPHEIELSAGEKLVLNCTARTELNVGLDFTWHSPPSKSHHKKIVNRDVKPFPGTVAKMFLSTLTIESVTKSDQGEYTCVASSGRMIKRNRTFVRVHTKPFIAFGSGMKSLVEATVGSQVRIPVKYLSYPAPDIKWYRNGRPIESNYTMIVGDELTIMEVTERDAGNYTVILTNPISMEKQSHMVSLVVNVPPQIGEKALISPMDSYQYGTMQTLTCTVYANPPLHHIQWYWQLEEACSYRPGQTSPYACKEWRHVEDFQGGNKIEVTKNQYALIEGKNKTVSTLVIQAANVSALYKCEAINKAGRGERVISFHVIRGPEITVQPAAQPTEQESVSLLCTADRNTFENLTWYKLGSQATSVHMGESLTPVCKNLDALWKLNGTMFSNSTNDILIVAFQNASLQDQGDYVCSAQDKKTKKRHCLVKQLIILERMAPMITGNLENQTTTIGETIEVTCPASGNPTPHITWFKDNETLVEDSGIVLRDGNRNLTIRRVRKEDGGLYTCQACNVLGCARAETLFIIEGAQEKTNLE

[1] = molecular target: T3, recombinantly produced soluble extracellular domain of the RTK Her2 (UniProt P04626 23-652); test: SPR (BiaCore), zoom; AKH-5 captured, Her2 and siRNA-DIG in both orders
T3 construct: extracellular domain; also called Her2-ECD; Her2ECD

human CD33-Fc fusion = molecular target: T4, human CD33-Fc fusion (human, UniProt P20138 18-259); test: SPR, <CD33>-<DIG> on human CD33-Fc fusion as ligand, then DIG-siRNA
T4 construct: not shown: Fc part not described
T4 sequence (P20138 18-259): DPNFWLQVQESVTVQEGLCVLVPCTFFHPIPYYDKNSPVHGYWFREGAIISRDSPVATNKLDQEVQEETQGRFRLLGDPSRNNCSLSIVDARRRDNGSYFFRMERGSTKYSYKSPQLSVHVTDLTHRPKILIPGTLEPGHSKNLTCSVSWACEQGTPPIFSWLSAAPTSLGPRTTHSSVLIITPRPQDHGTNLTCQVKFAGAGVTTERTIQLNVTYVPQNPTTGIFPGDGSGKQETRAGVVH

[2] = molecular target: digoxygenated protein Dig-BP4; test: SPR (Biacore), antibody captured by anti-mouse IgG, DIG-BP4 as analyte
[3] = molecular target: mono-digoxygenated protein DIG-myoglobin; test: SPR (Biacore), DIG-Myoglobin as analyte, replicate
Chain of mono-digoxygenated protein DIG-myoglobin (P68082 2-154): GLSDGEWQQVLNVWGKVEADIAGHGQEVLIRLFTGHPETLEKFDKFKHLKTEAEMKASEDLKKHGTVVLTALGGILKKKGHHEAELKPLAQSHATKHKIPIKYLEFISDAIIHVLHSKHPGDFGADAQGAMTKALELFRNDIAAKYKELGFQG

[4] = molecular target: mono-digoxygenated protein DIG-myoglobin; test: SPR (Biacore), DIG-Myoglobin as analyte
[5] = molecular target: digoxygenated protein Dig-BP4; test: SPR (Biacore); unit differs from Table 3 (33 pM)
[6] = molecular target: mono-digoxygenated protein DIG-myoglobin; test: SPR (Biacore), DIG-Myoglobin as analyte; remark: listed apart in the source
[7] = molecular target: digoxygenated protein Dig-BP4; test: SPR (Biacore), antibody captured by anti-human IgG, DIG-BP4 as analyte

B1: <VEGFR2(D1F7)-DIG>_001 (bispecific antibody, human IgG1, kappa)
heavy: not shown
light: QSVLTQPPSASGTPGQRVTISCSGSTSNIGTNTANWFQQLPGTAPKLLIHNNNQRPSGVPDRFSGSKSGTSASLAISGLQSEDEADYYCAAWDDSLNGHWVFGGGTKLTVLRTVAAPSVFIFPPSDEQLKSGTASVVCLLNNFYPREAKVQWKVDNALQSGNSQESVTEQDSKDSTYSLSSTLTLSKADYEKHKVYACEVTHQGLSSPVTKSFNRGEC
Human VEGFR2-Fc
  binding result: binds
Mouse VEGFR2-Fc
  binding result: binds

B2: AKH-5 (bispecific antibody)
chain: QVQLLQSGAELKKPGESLKISCKGSGYSFTSYWIAWVRQMPGKGLEYMGLIYPGDSDTKYSPSFQGQVTISVDKSVSTAYLQWSSLKPSDSAVYFCARHDVGYCSSSNCAKWPEYFQHWGQGTLVTVSSGGGGSGGGGSGGGGSGGGGSQSVLTQPPSVSAAPGQKVTISCSGSSSNIGNNYVSWYQQLPGTAPKLLIYGHTNRPAGVPDRFSGSKSGTSASLAISGFRSEDEADYYCASWDYTLSGWVFGGGTKLTVLGGGGGSGGSLAALTAHQACHLPLETFTRHRQPRGWEQLEQCGYPVQRLVALYLAARLSWNQVDQVIRNALASPGSGGDLGEAIREQPEQARLALTLAAAESERFVRQGTGNDGGGGSGGGGSQVQLVESGGGLVKPGGSLRLSCAASGFTFSDYAMSWIRQAPGKCLEWVSSINIGATYIYYADSVKGRFTISRDNAKNSLYLQMNSLRAEDTAVYYCARPGSPYEYDKAYYSMAYWGQGTTVTVSSGGGGSGGGGSGGGGSGGGGSDIQMTQSPSSLSASVGDRVTITCRASQDIKNYLNWYQQKPGKAPKLLIYYSSTLLSGVPSRFSGSGSGTDFTLTISSLQPEDFATYYCQQSITLPPTFGCGTKVEIKHHHHHH
notes: also called <HER2> scFv-PExII-<DIG> scFv-His6; drawn as <Her2> - PExI - <DIG> - 6xHis
[1]
  binding result: binds

B3: bispecific <CD33>-<DIG> antibody (bispecific antibody, human IgG1, kappa)
heavy: not shown
light: DIQLTQSPSTLSASVGDRVTITCRASESLDNYGIRFLTWFQQKPGKAPKLLMYAASNQGSGVPSRFSGSGSGTEFTLTISSLQPDDFATYYCQQTKEVPWSFGQGGTKVEVKEIKRTVAAPSVFIFPPSDEQLKSGTASVVCLLNNFYPREAKVQWKVDNALQSGNSQESVTEQDSKDSTYSLSSTLTLSKADYEKHKVYACEVTHQGLSSPVTKSFNRGEC
Human CD33-Fc fusion
  binding result: binds

B4: hybridoma-derived murine <Dig> 19-11 antibody (antibody, V domains shown)
VH: EVQLVESGGGLVKPGGSLKLSCAVSGFTFSDYAMSWIRQTPENRLEWVASINIGATYAYYPDSVKGRFTISRDNAKNTLFLQMSSLGSEDTAMYYCARPGSPYEYDKAYYSMAYWGPGTSVTVSS
VL: DVQMTQSTSSLSASLGDRVTISCRASQDIKNYLNWYQQKPGGTVKLLIYYSSTLLSGVPSRFSGRGSGTDFSLTITNLEREDIATYFCQQSITLPPTFGGGTKLEIK
notes: also called murine DIG-IgG 19-11; <DIG>M-19-11
[2]
  Kd: 0.033 nM
[3]
  Kd: 0.295 nM
  koff: 0.000675 s⁻¹
  kon: 2.28e+06 M⁻¹ s⁻¹
[4]
  Kd: 0.386 nM
  koff: 0.000676 s⁻¹
  kon: 1.75e+06 M⁻¹ s⁻¹
[5]
  Kd: 33 nM
[6]
  fold better affinity than <DIG>-hu2 and the disulfide-stabilized <DIG> scFv: ~100 fold

B5: recombinant humanized <Dig> IgG antibody (antibody, V domains shown)
VH: QVQLVESGGGLVKPGGSLRLSCAASGFTFSDYAMSWIRQAPGKGLEWVSSINIGATYIYYADSVKGRFTISRDNAKNSLYLQMNSLRAEDTAVYYCARPGSPYEYDKAYYSMAYWGQGTTVTVSS
VL: DIQMTQSPSSLSASVGDRVTITCRASQDIKNYLNWYQQKPGKAPKLLIYYSSTLLSGVPSRFSGSGSGTDFTLTISSLQPEDFATYYCQQSITLPPTFGGGTKVEIKR
notes: also called hu<DIG> IgG; <DIG>hu2; not shown: hinge-CH2-CH3 of human IgG1
[7]
  Kd: < 0.076 nM
[3]
  Kd: 11.8 nM
  koff: 0.00881 s⁻¹
  kon: 749000 M⁻¹ s⁻¹
[4]
  Kd: 15.8 nM
  koff: 0.00982 s⁻¹
  kon: 620000 M⁻¹ s⁻¹
